Source: patent US8293529B2, “Method for inducing differentiation of pluripotent stem cells into cardiomyocytes” (Daiichi Sankyo Company, Limited, priority 2006, dated 2012)

B1: Chordin: commercially available recombinant Chordin protein (R&D systems), BMP antagonist (protein, UniProt Q9H2X0 27-955, looked up)
Chordin: AGPEPPVLPIRSEKEPLPVRGAAGCTFGGKVYALDETWHPDLGEPFGVMRCVLCACEAPQWGRRTRGPGRVSCKNIKPECPTPACGQPRQLPGHCCQTCPQERSSSERQPSGLSFEYPRDPEHRSYSDRGEPGAEERARGDGHTDFVALLTGPRSQAVARARVSLLRSSLRFSISYRRLDRPTRIRFSDSNGSVLFEHPAAPTQDGLVCGVWRAVPRLSLRLLRAEQLHVALVTLTHPSGEVWGPLIRHRALAAETFSAILTLEGPPQQGVGGITLLTLSDTEDSLHFLLLFRGLLEPRSGGLTQVPLRLQILHQGQLLRELQANVSAQEPGFAEVLPNLTVQEMDWLVLGELQMALEWAGRPGLRISGHIAARKSCDVLQSVLCGADALIPVQTGAAGSASLTLLGNGSLIYQVQVVGTSSEVVAMTLETKPQRRDQRTVLCHMAGLQPGGHTAVGICPGLGARGAHMLLQNELFLNVGTKDFPDGELRGHVAALPYCGHSARHDTLPVPLAGALVLPPVKSQAAGHAWLSLDTHCHLHYEVLLAGLGGSEQGTVTAHLLGPPGTPGPRRLLKGFYGSEAQGVVKDLEPELLRHLAKGMASLMITTKGSPRGELRGQVHIANQCEVGGLRLEAAGAEGVRALGAPDTASAAPPVVPGLPALAPAKPGGPGRPRDPNTCFFEGQQRPHGARWAPNYDPLCSLCTCQRRTVICDPVVCPPPSCPHPVQAPDQCCPVCPEKQDVRDLPGLPRSRDPGEGCYFDGDRSWRAAGTRWHPVVPPFGLIKCAVCTCKGGTGEVHCEKVQCPRLACAQPVRVNPTDCCKQCPVGSGAHPQLGDPMQADGPRGCRFAGQWFPESQSWHPSVPPFGEMSCITCRCGAGVPHCERDDCSLPLSCGSGKESRCCSRCTAHRRPAPETRTDPELEKEAEGS
B2: Wnt-5a: commercially available recombinant mouse-derived Wnt-5a protein (R&D systems) (protein, listed as Mus musculus)
chain: MKKPIGILSPGVALGTAGGAMSSKFFLMALATFFSFAQVVIEANSWWSLGMNNPVQMSEVYIIGAQPLCSQLAGLSQGQKKLCHLYQDHMQYIGEGAKTGIKECQYQFRHRRWNCSTVDNTSVFGRVMQIGSRETAFTYAVSAAGVVNAMSRACREGELSTCGCSRARPKDLPRDWLWGGCGDNIDYGHPFAKEFVDARERERIHAKGSYESARILMNLHNNEAGRRTVYNLADVACKCHGVSGSCSLKTCWLQLADFRKVGDALKEKYDSAAAMRLNSRGKLVQVNSRFNSPTTQDLVYIDPSPDYCVRNESTGSLGTQGRLCNKTSEGMDGCELMCCGRGYDQFKTVQTERCHCKFHWCCYVKCKKCTEIVDQFVCK
B3: DAN: commercially available recombinant DAN protein (R&D systems), BMP antagonist (protein, UniProt P41271 17-181, looked up)
Neuroblastoma suppressor of …: AAPPPINKLALFPDKSAWCEAKNITQIVGHSGCEAKSIQNRACLGQCFSYSVPNTFPQSTESLVHCDSCMPAQSMWEIVTLECPGHEEVPRVDKLVEKILHCSCQACGKEPSHEGLSVYVQGEDGPGSQPGTHPHPHPHPHPGGQTPEPEDPPGAPHTEEEGAED
B4: WNT-1: commercially available recombinant human-derived WNT-1 protein (Peprotech), canonical Wnt (protein, listed as Mus musculus)
chain: MGLWALLPSWVSTTLLLALTALPAALAANSSGRWWGIVNIASSTNLLTDSKSLQLVLEPSLQLLSRKQRRLIRQNPGILHSVSGGLQSAVRECKWQFRNRRWNCPTAPGPHLFGKIVNRGCRETAFIFAITSAGVTHSVARSCSEGSIESCTCDYRRRGPGGPDWHWGGCSDNIDFGRLFGREFVDSGEKGRDLRFLMNLHNNEAGRTTVFSEMRQECKCHGMSGSCTVRTCWMRLPTLRAVGDVLRDRFDGASRVLYGNRGSNRASRAELLRLEPEDPAHKPPSPHDLVYFEKSPNFCTYSGRLGTAGTAGRACNSSSPALDGCELLCCGRGHRTRTQRVTERCNCTFHWCCHVSCRNCTHTRVLHECL

How the values were obtained:
human ES cells = details: rises from 15% without treatment; cited from earlier work
mouse ES cells [1] = assay: Appearance rate of EBs exhibiting spontaneous beating; assay type: cell-based; details: for occurrence of beating EBs: Wnt proteins added at 10 ng/mL to 50 ng/mL; for appearance rate of beating EBs: recombinant protein added at 1 ng/mL to 100 ng/mL
Protocol: Culture for inducing differentiation of ES cells into cardiomyocytes or neurons was accomplished in a routine manner as follows. ES cells were suspended in LIF-free medium, and the resulting suspension was seeded at 500 cells/50 μL per well of a commercially available 96-well culture plate for spheroid formation (Sumilon Celltight Spheroid; Sumitomo Bakelite Co., Ltd., Japan).
In the early stage of differentiation in ES cells, transient elevations in expression of various Wnt genes were observed prior to the appearance of cardiomyocytes. Then, ES cells at this stage were treated with recombinant Wnt proteins to study the myocardial differentiation-inducing effect of the proteins. Induction of ES cell differentiation was accomplished in the same manner as used in Example 1, except that some of the experimental groups were cultured in medium containing a commercially available recombinant WNT-1 (Peprotech), Wnt-3a (R&D systems) or Wnt-5a (R&D systems) protein. Treatment of ES cells in medium supplemented with a recombinant protein of canonical Wnt such as WNT-1 is hereinafter referred to as “Wnt treatment.”
The above canonical Wnt protein treatment is known to inhibit the action of GSK3β within cells and thereby promote stabilization of β-catenin and its transcription activation ability. Then, further studies were performed to confirm that treatment with various drugs capable of promoting stabilization of β-catenin and its transcription activation ability produced a myocardial differentiation-inducing effect on ES cells, as in the case of Wnt treatment. As drugs capable of promoting stabilization of β-catenin and its transcription activation ability, the following five commercially available compounds were used: GSK3β inhibitors BIO (Calbiochem), GSK3β inhibitor VII (Calbiochem), cell-permeable GSK3β peptide inhibitor (L803-mts; Calbiochem) and SB216763 (Biomol), as well as a Wnt agonist (Calbiochem) that promotes the transcription activation ability of β-catenin without GSK3β inhibition. ES cells were induced to differentiate in the same manner as used in the above Examples, and cultured in medium containing the above compounds during the time period between 48 and 120 hours ([…]) after induction of differentiation, as in the case of recombinant Wnt proteins.

mouse ES cells [2] = assay: Wnt gene expression during induction of differentiation in ES cells (real-time PCR); assay type: cell-based; details: BMP antagonist treatment 15 ng/mL, 3 days before and immediately after induction; 72 hours after induction of differentiation; vs untreated group
Description: Various Wnt genes were studied for their expression during differentiation in mouse ES cells. For use in experiments, mouse ES cells were passaged and maintained in an undifferentiated state according to the methods as described in “Manipulating the Mouse Embryo: A Laboratory Manual” (Hogan et al., eds., Cold Spring Harbor Laboratory Press, 1994) and “Embryonic Stem Cells: Methods and Protocols” (Turksen ed., Humana Press, 2002) by using Knockout-DMEM (Invitrogen) medium containing 20% fetal bovine serum, 2 mmol/L L-glutamine and 0.1 mmol/L 2-mercaptoethanol (hereinafter referred to as ESM), supplemented with 1000 U/mL LIF (ESGRO; Chemicon). […]
The EBs thus prepared were collected periodically, and total RNA was prepared with an RNeasy mini kit (Qiagen), followed by DNase treatment. cDNA was synthesized from the DNase-treated total RNA (1 μg) using a SuperScript™ First-Strand Synthesis System for RT-PCR (Invitrogen). Analysis of gene expression was performed with an ABI PRISM 7700 (PE Applied Biosystems) by using a real-time polymerase chain reaction (PCR) quantification system with Lux primers to examine the expression level of each gene. The real-time PCR quantification was accomplished by using the above cDNA as a template and using Platinum Quantitative PCR SuperMix-UDG (Invitrogen) according to the instructions attached thereto. […]

mouse ES cells [3] = assay: Immunohistochemical staining of cardiomyocyte-specific marker proteins in EBs; assay type: cell-based; details: EBs at 10 days after induction of differentiation
Protocol: Subsequently, immunohistochemical staining was performed to confirm that beating cells developed in EBs from the Wnt-treated groups produced cardiomyocyte-specific marker proteins. EBs in the Wnt-treated group (Wnt^48˜120h group) at 10 days after induction of differentiation were freshly embedded in a compound for preparing frozen sections (OCT Compound, Sakura Finetek USA Inc.) and then frozen with liquid nitrogen. The frozen samples were sectioned at 6 μm of thickness and attached on glass slides. These frozen sections were reacted with anti-sarcomeric myosin antibody (MF20; American Type Culture Collection), anti-GATA-4 antibody (C-20; Santa Cruz) or anti-Nkx-2.5 antibody (N-19; Santa Cruz) as a primary antibody and then reacted with a horseradish peroxidase-labeled secondary antibody (Bio-RAD), and finally subjected to a color reaction with ACE (3-amino-9-ethylcarbazole) substrate solution (Nichirei Corporation, Japan) and observed under an optical microscope.

cmES cells = assay: Immunohistochemical staining of marker proteins in EBs from cmES cells; assay type: cell-based, common marmoset; details: EBs at 16 days after induction of differentiation
Protocol: Subsequently, immunohistochemical staining was performed in the same manner as used in Example 2 to confirm that beating cells developed in EBs from the Wnt-treated groups were cardiomyocytes producing specific marker proteins. From EBs in the Wnt-treated groups (Wnt-3a, WNT-1) at 16 days after induction of differentiation, frozen sections were prepared and reacted with anti-sarcomeric myosin antibody, anti-GATA-4 antibody or anti-Nkx-2.5 antibody as a primary antibody. After color reaction, these sections were observed under an optical microscope.

| Molecule | expression levels of the Wnt genes (Wnt-3, Wnt-3a, Wnt-8a) (mouse ES cells [2]) | occurrence of beating EBs (mouse ES cells [1]) | appearance rate of beating EBs (mouse ES cells [1]) | other results |
| --- | --- | --- | --- | --- |
| Nc1ncn([C@@H]2O[C@H](CO)[C@@H](O)[C@H]2O)c(=O)n1 [5-azacytidine] | – | – | – | percentage of troponin I-positive cells (candidate cardiomyocytes) in EBs (human ES cells): 44% |
| B1 | significantly higher than those of the untreated group | – | – | regions of EBs exhibiting beating (mouse ES cells [1]; Wnt 48-96 h and 48-120 h groups, Chordin-treated EBs): beating throughout virtually all regions of their surface layer |
| B2 | – | very good occurrence of beating EBs | significantly higher than in the untreated group | – |
| B3 | significantly higher than those of the untreated group | – | – | cells positive for sarcomeric myosin, Nkx-2.5 and GATA-4 (mouse ES cells [3]): the great majority of EB-constituting cells were found to be positive |
| B4 | – | very good occurrence of beating EBs | significantly higher than in the untreated group | cells positive for sarcomeric myosin, GATA-4 and Nkx-2.5 (cmES cells): the great majority of EB-constituting cells were found to be positive |
